Experimental data published in US20250186614A1, “COMPACT DRUG RESPONSIVE DOMAINS FOR REGULATION OF FUNCTION/ABUNDANCE AND DELIVERY OF POLYPEPTIDE PAYLOADS” (OBSIDIAN THERAPEUTICS, INC., priority 2022, published 2025).
Where a chain is given by its changes, count along the chain named. Names and notes keep the numbering of the source.

B1: FKBP-240: FKBP13 DRD-AcGFP construct of Table 10 (protein)
chain: HCPIKSRKGDVLHMHYTGKLYDGTEFDSSLPRNQPFVFSLGTGERIKGWDQGLLGMCEGEKRKLVIPSELGYGERGWPPKIPGGATLVFEVELLKIER
modifications: Description of sequence: Construct Name: FKBP-240; Mutation(s): Q72R Q84E A117W V85R DRD E61Y
B2: FKBP-249 (protein)
chain: B1 chain with Y21E, S28D
modifications: Description of sequence: Construct Name: FKBP-249; Mutation(s): Q72R Q84E A117W V85R DRD S68D
B3: FKBP-255: FKBP13 DRD-AcGFP construct of Table 10 (protein)
chain: B1 chain with Y21E, G59R
modifications: Description of sequence: Construct Name: FKBP-255; Mutation(s): Q72R Q84E A117W V85R DRD G99R
B4: FKBP-248 (protein)
chain: B1 chain with Y21E, S28D, R45V
modifications: Description of sequence: Construct Name: FKBP-248; Mutation(s): Q72R Q84E A117W DRD S68D
B5: FKBP-160 (protein)
chain: B1 chain with M14A, Y21E
modifications: Description of sequence: Construct Name: FKBP-160; Mutation(s): Q72R Q84E A117W V85R DRD M54A
B6: FKBP-191: FKBP13 DRD-AcGFP construct of Table 10 (protein)
chain: B1 chain with G9S, Y21E
modifications: Description of sequence: Construct Name: FKBP-191; Mutation(s): Q72R Q84E A117W V85R DRD G49S
B7: FKBP-250 (protein)
chain: B1 chain with Y21E, R45V, E90F
modifications: Description of sequence: Construct Name: FKBP-250; Mutation(s): Q72R Q84E A117W DRD E130F
B8: FKBP-242 (protein)
chain: B1 chain with Y21E, R45V, P78S
modifications: Description of sequence: Construct Name: FKBP-242; Mutation(s): Q72R Q84E A117W DRD P118S
B9: FKBP-246 (protein)
chain: B1 chain with Y21E, S29H
modifications: Description of sequence: Construct Name: FKBP-246; Mutation(s): Q72R Q84E A117W V85R DRD S69H
B10: FKBP-247 (protein)
chain: B1 chain with M14A, Y21E, S29H
modifications: Description of sequence: Construct Name: FKBP-247; Mutation(s): Q72R Q84E A117W V85R DRD S69H M54A
B11: FKBP-243: FKBP13 DRD-AcGFP construct of Table 10 (protein)
chain: B1 chain with Y21E, P78S
modifications: Description of sequence: Construct Name: FKBP-243; Mutation(s): Q72R Q84E A117W V85R DRD P118S
B12: FKBP-244: FKBP13 DRD-AcGFP construct of Table 10 (protein)
chain: B1 chain with M14A, Y21E, P78S
modifications: Description of sequence: Construct Name: FKBP-244; Mutation(s): Q72R Q84E A117W V85R DRD P118S M54A
B13: FKBP-245 (protein)
chain: B1 chain with Y21E, S29H, R45V
modifications: Description of sequence: Construct Name: FKBP-245; Mutation(s): Q72R Q84E A117W DRD S69H
B14: FKBP-241 (protein)
chain: B1 chain with M14A
modifications: Description of sequence: Construct Name: FKBP-241; Mutation(s): Q72R Q84E A117W V85R DRD E61Y M54A
B15: FKBP-192: FKBP13 DRD-AcGFP construct of Table 10 (protein)
chain: B1 chain with Y21E, P35L
modifications: Description of sequence: Construct Name: FKBP-192; Mutation(s): Q72R Q84E A117W V85R DRD P75L
B16: FKBP-254 (protein)
chain: B1 chain with Y21E, R45V, G59R
modifications: Description of sequence: Construct Name: FKBP-254; Mutation(s): Q72R Q84E A117W DRD G99R
B17: FKBP-253 (protein)
chain: B1 chain with Y21E, I96P
modifications: Description of sequence: Construct Name: FKBP-253; Mutation(s): Q72R Q84E A117W V85R DRD I136P
B18: FKBP-252 (protein)
chain: B1 chain with Y21E, R45V, I96P
modifications: Description of sequence: Construct Name: FKBP-252; Mutation(s): Q72R Q84E A117W DRD I136P
B19: FKBP-190 (protein)
chain: B1 chain with M14A, Y21E, F89T
modifications: Description of sequence: Construct Name: FKBP-190; Mutation(s): Q72R Q84E A117W V85R DRD M54A F129T
B20: FKBP-180 (protein)
chain: B1 chain with M14A, Y21E, R45V, F89T
modifications: Description of sequence: Construct Name: FKBP-180; Mutation(s): Q72R Q84E A117W DRD M54A F129T
B21: FKBP-174 (protein)
chain: B1 chain with S6G, M14A, Y21E, R45V, V91G
modifications: Description of sequence: Construct Name: FKBP-174; Mutation(s): Q72R Q84E A117W DRD M54A S36G V131G
B22: FKBP-183 (protein)
chain: B1 chain with M14A, Y21E, L93G
modifications: Description of sequence: Construct Name: FKBP-183; Mutation(s): Q72R Q84E A117W V85R DRD M54A L133G
B23: FKBP-176 (protein)
chain: B1 chain with M14A, Y21E, R45V, G76E
modifications: Description of sequence: Construct Name: FKBP-176; Mutation(s): Q72R Q84E A117W DRD M54A G116E
B24: FKBP-173 (protein)
chain: B1 chain with M14A, Y21E, R45V, L93G
modifications: Description of sequence: Construct Name: FKBP-173; Mutation(s): Q72R Q84E A117W DRD M54A L133G
B25: FKBP-179 (protein)
chain: B1 chain with H13G, M14A, Y21E, R32L, R45V
modifications: Description of sequence: Construct Name: FKBP-179; Mutation(s): Q72R Q84E A117W DRD M54A H53G R72L
B26: FKBP-175 (protein)
chain: B1 chain with D10A, M14A, T17I, Y21E, R45V, I96L
modifications: Description of sequence: Construct Name: FKBP-175; Mutation(s): Q72R Q84E A117W DRD M54A D50L T57I I136L
B27: FKBP-184 (protein)
chain: B1 chain with S6G, M14A, Y21E, V91G
modifications: Description of sequence: Construct Name: FKBP-184; Mutation(s): Q72R Q84E A117W V85R DRD M54A S36G V131G

Assay: Example 4: dose response of FKBP constructs 160-255, Ec50, Ec90 and fold change (raw and normalized to mCherry)
Assay type: cell-based
Details: FKBP constructs 160-255; not normalized; read-out: EC90
Procedure: Additional experiments were performed for constructs FKBP-160-292.

With B1 as the molecule, how does the EC90 read?
The EC90 was 111 nM.

Which EC90 does the source give for B2 here?
Its EC90 is 472 nM.

With B3 as the molecule, how does the EC90 read?
The EC90 was 101 nM.

For B4, which EC90 is on record?
Its EC90 is 1800 nM.

With B5 as the molecule, how does the EC90 read?
Its EC90 is 42.2 nM.

For B6, which EC90 is on record?
Its EC90 is 367 nM.

For B7, which EC90 is on record?
The EC90 was 101 nM.

For B8, which EC90 is on record?
Its EC90 is 466 nM.

With B9 as the molecule, how does the EC90 read?
Its EC90 is 1530 nM.

For B10, which EC90 is on record?
The EC90 was 2810 nM.

Which EC90 does the source give for B11 here?
The EC90 was 125 nM.

With B12 as the molecule, how does the EC90 read?
Its EC90 is 307 nM.

Which EC90 does the source give for B13 here?
The EC90 was 5830 nM.

For B14, which EC90 is on record?
The EC90 was 221 nM.

For B15, which EC90 is on record?
Its EC90 is 230 nM.

Which EC90 does the source give for B16 here?
Its EC90 is 369 nM.

Same assay, conditions: fold change during initial analysis

With B1 as the molecule, how does the “FC (fold change)” value read?
The value was 43.7.

For B2, which “FC (fold change)” value is on record?
Its value is 33.7.

For B17, which “FC (fold change)” value is on record?
Its value is 2.3.

With B18 as the molecule, how does the “FC (fold change)” value read?
Its value is 1.3.

For B3, which “FC (fold change)” value is on record?
Its value is 33.0.

For B4, which “FC (fold change)” value is on record?
Its value is 50.1.

With B19 as the molecule, how does the “FC (fold change)” value read?
The value was 0.9.

With B20 as the molecule, how does the “FC (fold change)” value read?
Its value is 1.2.

For B21, which “FC (fold change)” value is on record?
Its value is 0.9.

For B22, which “FC (fold change)” value is on record?
The value was 4.

Which “FC (fold change)” value does the source give for B5 here?
Its value is 25.7.

For B23, which “FC (fold change)” value is on record?
The value was 6.8.

Which “FC (fold change)” value does the source give for B6 here?
The value was 50.6.

With B7 as the molecule, how does the “FC (fold change)” value read?
The value was 22.0.

With B8 as the molecule, how does the “FC (fold change)” value read?
Its value is 24.4.

With B9 as the molecule, how does the “FC (fold change)” value read?
The value was 30.4.

For B10, which “FC (fold change)” value is on record?
Its value is 35.0.

For B24, which “FC (fold change)” value is on record?
The value was 4.

Which “FC (fold change)” value does the source give for B11 here?
Its value is 37.1.

For B12, which “FC (fold change)” value is on record?
The value was 51.2.

Which “FC (fold change)” value does the source give for B13 here?
The value was 40.6.

For B25, which “FC (fold change)” value is on record?
Its value is 3.1.

With B26 as the molecule, how does the “FC (fold change)” value read?
Its value is 7.25.

Which “FC (fold change)” value does the source give for B14 here?
The value was 43.9.

For B15, which “FC (fold change)” value is on record?
The value was 55.0.

With B16 as the molecule, how does the “FC (fold change)” value read?
The value was 35.6.

For B27, which “FC (fold change)” value is on record?
Its value is 1.

Same assay, conditions: normalized to mCherry; read-out: EC90 (Norm)

With B1 as the molecule, how does the EC90 read?
Its EC90 is 111 nM.

Which EC90 does the source give for B2 here?
Its EC90 is 494 nM.

Which EC90 does the source give for B3 here?
Its EC90 is 101 nM.

Which EC90 does the source give for B4 here?
The EC90 was 1880 nM.

For B5, which EC90 is on record?
Its EC90 is 48.2 nM.

For B6, which EC90 is on record?
The EC90 was 391 nM.

For B7, which EC90 is on record?
Its EC90 is 114 nM.

Which EC90 does the source give for B8 here?
Its EC90 is 539 nM.

For B9, which EC90 is on record?
Its EC90 is 1520 nM.

Which EC90 does the source give for B10 here?
Its EC90 is 2950 nM.

Which EC90 does the source give for B11 here?
The EC90 was 127 nM.

For B12, which EC90 is on record?
Its EC90 is 328 nM.

For B13, which EC90 is on record?
Its EC90 is 5870 nM.

Which EC90 does the source give for B14 here?
The EC90 was 222 nM.

With B15 as the molecule, how does the EC90 read?
Its EC90 is 228 nM.

With B16 as the molecule, how does the EC90 read?
Its EC90 is 373 nM.
